Assay results taken from patent publication EP4349860A1 (Fundació Institut Hospital Del Mar D'Investigacions …, dated 2024).
Where two headings read alike, the source gives them in different places.

Columns and labels:
[1] = biological target: T1, SARS-CoV-2 spike protein, Omicron BA.2 variant, on pseudovirus (SARS-CoV-2 (Omicron BA.2 variant)); assay: cell-based or functional assay
[2] = biological target: T2, SARS-CoV-2 spike protein, Alpha (B.1.1.7) variant, on pseudovirus (SARS-CoV-2 (Alpha variant)); assay: cell-based or functional assay
[3] = biological target: T3, SARS-CoV-2 spike protein, Beta (B.1.351) variant, on pseudovirus (SARS-CoV-2 (Beta variant)); assay: cell-based or functional assay
[4] = biological target: T4, SARS-CoV-2 spike protein, Gamma (P.1) variant, on pseudovirus (SARS-CoV-2 (Gamma variant)); assay: cell-based or functional assay
[5] = biological target: T5, SARS-CoV-2 spike protein, Delta (B.1.617.2) variant, on pseudovirus (SARS-CoV-2 (Delta variant)); assay: cell-based or functional assay
[6] = biological target: SARS-CoV-2 spike protein, Mu (B.1.621) variant, on pseudovirus (SARS-CoV-2 (Mu variant)); assay: cell-based or functional assay
[7] = biological target: T2, SARS-CoV-2 spike protein, Alpha …; assay: cell-based or functional assay; remark: listed apart in the source
[8] = biological target: T3, SARS-CoV-2 spike protein, Beta …; assay: cell-based or functional assay; remark: listed apart in the source
[9] = biological target: T4, SARS-CoV-2 spike protein, Gamma (P.1) …; assay: cell-based or functional assay; remark: listed apart in the source
[10] = biological target: T5, SARS-CoV-2 spike protein, Delta …; assay: cell-based or functional assay; remark: listed apart in the source
[11] = biological target: T1, SARS-CoV-2 spike protein, Omicron BA.2 …; assay: cell-based or functional assay; remark: listed apart in the source
[12] = biological target: SARS-CoV-2 spike protein, Omicron BA.4/BA.5 variants, on pseudovirus (SARS-CoV-2 (Omicron BA.4/BA.5 variants)); assay: cell-based or functional assay
[13] = biological target: T6, RBD of the SARS-CoV-2 spike protein, Beta (B.1.351) variant (SARS-CoV-2 (Beta variant), UniProt P0DTC2 319-541); assay: ELISA, plate coated with RBD at 2 µg/ml, anti-human IgG-HRP detection
T6 construct: domain: RBD

[14] = biological target: T7, RBD of the SARS-CoV-2 spike protein, Gamma (P.1) variant (SARS-CoV-2 (Gamma variant), UniProt P0DTC2 319-541); assay: as above
T7 construct: domain: RBD

[15] = biological target: T8, RBD of the SARS-CoV-2 spike protein, Delta (B.1.617.2) variant (SARS-CoV-2 (Delta variant), UniProt P0DTC2 319-541); assay: as above
T8 construct: domain: RBD

B1: mAb17T2 (antibody, V domains shown)
VH: QVQLVQSGPEVKKPGTSVKVSCKAPVFTFSISAVQWVRQARGQRLEWIGWIVVGSGNTNYAQNFQERVTITTDMSTGTVYMELSGLRSEDTAMYYCAAPYCNRTTCYDGFDLWGQGTMVTVSS
VL: EIVLTQSPGTLSLSPGERATLSCRASQSISSNYLAWYQQKPGQAPRLLIYGASSRATGIPDRFSGSGSGTDFTLSINRLEPEDFAMYYCQHYGGLSRWTFGQGTKVEIKR
For B1, which “fold neutralizing activity compared to S2E12” value [1] is on record?
Its value is 13.5 fold.

And the “fold neutralizing activity compared to S309” value [1]?
The value was 41 fold.

And the “IC50 (µg/ml), pseudotyped virus neutralization” value (from here on “IC50 (µg/ml)”) [2]?
The value was 0.00666 µg/mL.

What about the “IC80 (µg/ml), pseudotyped virus neutralization” value (“IC80 (µg/ml)” for short) [2] of the same binder?
The value was 0.014 µg/mL.

What about the “IC90 (µg/ml), pseudotyped virus neutralization” value (shortened to “IC90 (µg/ml)”) [2] of the same binder?
Its value is 0.0216 µg/mL.

And the “IC50 (µg/ml)” value [3]?
The value was 0.0022 µg/mL.

What about the “IC80 (µg/ml)” value [3] of the same binder?
Its value is 0.00481 µg/mL.

And the “IC90 (µg/ml)” value [3]?
Its value is 0.0076 µg/mL.

And the “IC50 (µg/ml)” value [4]?
Its value is 0.0126 µg/mL.

And the “IC80 (µg/ml)” value [4]?
Its value is 0.0218 µg/mL.

And the “IC90 (µg/ml)” value [4]?
The value was 0.0302 µg/mL.

What about the “IC50 (µg/ml)” value [5] of the same binder?
The value was 0.0105 µg/mL.

What about the “IC80 (µg/ml)” value [5] of the same binder?
Its value is 0.0165 µg/mL.

What about the “IC90 (µg/ml)” value [5] of the same binder?
The value was 0.0215 µg/mL.

And the “IC50 (µg/ml)” value [6]?
The value was 0.00907 µg/mL.

And the “IC80 (µg/ml)” value [6]?
Its value is 0.014 µg/mL.

And the “IC90 (µg/ml)” value [6]?
Its value is 0.0181 µg/mL.

And the “IC50 (µg/ml)” value [7]?
The value was 0.0069 µg/mL.

And the “IC50 (µg/ml)” value [8]?
The value was 0.0027 µg/mL.

And the “IC50 (µg/ml)” value [9]?
Its value is 0.0083 µg/mL.

What about the “IC50 (µg/ml)” value [10] of the same binder?
Its value is 0.0096 µg/mL.

And the “IC50 (µg/ml)” value [11]?
Its value is 0.0101 µg/mL.

What about the “IC50 (µg/ml)” value [12] of the same binder?
The value was 0.00203 µg/mL.

What about the EC50 [13] of the same binder?
Its EC50 is 3.76 ng/mL.

And the EC50 [14]?
Its EC50 is 3.08 ng/mL.

And the EC50 [15]?
Its EC50 is 3.38 ng/mL.
